Patent US20230037815A1

Target: human CD19 on KILR Raji cells (UniProt P15391)
Test: cell-based or functional assay

Chain of human CD19 on KILR Raji cells (P15391 20-556 limits assumed): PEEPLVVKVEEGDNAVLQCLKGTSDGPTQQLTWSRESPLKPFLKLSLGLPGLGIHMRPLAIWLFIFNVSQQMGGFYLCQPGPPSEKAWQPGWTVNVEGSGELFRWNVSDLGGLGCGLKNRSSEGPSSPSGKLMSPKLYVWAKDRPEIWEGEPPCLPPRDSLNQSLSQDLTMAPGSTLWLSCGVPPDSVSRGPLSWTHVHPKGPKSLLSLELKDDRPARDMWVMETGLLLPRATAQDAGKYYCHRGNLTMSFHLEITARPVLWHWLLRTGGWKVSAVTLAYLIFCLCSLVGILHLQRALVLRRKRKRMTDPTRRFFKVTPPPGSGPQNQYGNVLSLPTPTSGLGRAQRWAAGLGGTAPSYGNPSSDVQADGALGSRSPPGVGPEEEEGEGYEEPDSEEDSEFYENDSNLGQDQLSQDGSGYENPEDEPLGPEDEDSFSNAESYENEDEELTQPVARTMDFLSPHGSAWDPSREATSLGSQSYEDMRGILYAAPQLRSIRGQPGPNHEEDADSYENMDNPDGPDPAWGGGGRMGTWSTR

## blinatumomab (bispecific antibody)
  EC50 (pg/mL) of T cell-redirected killing of KILR Raji cells, +HSA: 10800 pg/mL
  EC50 (pg/mL) of T cell-redirected killing of KILR Raji cells, -HSA: 2850 pg/mL
